Assays:
Assay in all cases: pull-down; biotinylated cbEGF41-43 or control cbEGF32-34 immobilised on M270 streptavidin-coated magnetic beads; 15 ug His-tagged protein in 50 mM Tris-HCl pH 7.4, 150 mM NaCl, 2 mM CaCl2, 0.05% Tween-20, 1% BSA for 1 hr; western blot with anti-RGS-His-HRP
Conditions in all cases: both partners purified
[1] = biological target: T1, FUN-EGF3 mutant lacking the 63Y-N-A-Y66 motif in the FUN domain (human, UniProt P35555 45-178, 63Y-N-A-Y66 deleted)
T1 construct: human fibrillin-1 FUN-EGF3, residues R45-E178, with 63Y-N-A-Y66 deleted; also called YNAY FUN-EGF3

S88A FUN-EGF3 = biological target: T2, S88A FUN-EGF3 (human, UniProt P35555 45-178, S88A)
T2 construct: human fibrillin-1 FUN-EGF3, residues R45-E178, with S88 substituted with alanine

R62A FUN-EGF3 = biological target: T3, R62A FUN-EGF3 (human, UniProt P35555 45-178, R62A)
T3 construct: human fibrillin-1 FUN-EGF3, residues R45-E178, with R62A

FUN-EGF3 (G5) mutant = biological target: T4, FUN-EGF3 (G5) mutant (human, UniProt P35555 45-178, 113S-R-S-I-Q117 replaced with five glycines)
T4 construct: human fibrillin-1 FUN-EGF3, residues R45-E178, with 113S-R-S-I-Q117 of the EGF1-EGF2 linker replaced with five glycines; also called G5 FUN-EGF3

[2] = biological target: T5, human fibrillin-1 FUN-EGF3 fragment (residues R45-E178) (human, UniProt P35555 45-178)
T5 construct: human fibrillin-1, fibrillin unique N-terminal (FUN) domain and EGF1-EGF3, residues R45-E178; The vector pQE-30 is named; also called wild-type (WT) FUN-EGF3; fibrillin N-terminal fragment
T5 sequence (P35555 45-178): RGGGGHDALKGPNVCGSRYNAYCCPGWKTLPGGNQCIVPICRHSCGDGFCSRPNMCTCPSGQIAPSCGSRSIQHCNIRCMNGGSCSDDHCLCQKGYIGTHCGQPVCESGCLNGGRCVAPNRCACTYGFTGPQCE

T3 sequence (P35555 45-178 R62A): as the sequence (P35555 45-178) above, with R18A counted along it
T1 sequence (P35555 other isoform, or with tags, fused parts or gaps 63Y-N-A-Y66 deleted | 63Y-N-A-Y66 deleted | mutant): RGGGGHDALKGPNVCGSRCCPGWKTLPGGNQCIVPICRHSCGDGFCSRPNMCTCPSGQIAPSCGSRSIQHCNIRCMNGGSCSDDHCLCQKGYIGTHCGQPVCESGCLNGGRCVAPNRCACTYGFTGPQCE
T4 sequence (P35555 other isoform, or with tags, fused parts or gaps with the stated changes): as the sequence (P35555 45-178) above, with S69G, R70G, S71G, I72G, Q73G counted along it
T2 sequence (P35555 45-178 S88A): as the sequence (P35555 45-178) above, with S44A counted along it

binding result [1]: binds | binding result (S88A FUN-EGF3): binds | binding result (R62A FUN-EGF3): binds | binding result (FUN-EGF3 (G5) mutant): binds | binding result [2]: binds
B1: human fibrillin-1 cbEGF41-43 fragment (residues D2567-V2687), biotinylated, C-terminal BirA tag (domain or fragment)
chain: not shown
modifications: biotin, site-specific, on the BirA tag
notes: Held on streptavidin-coated magnetic beads by its biotin; also called fibrillin C-terminal fragment; not shown: BirA tag, C-terminal, kept

From PMC3794157, “Structure of the Fibrillin-1 N-Terminal Domains Suggests that Heparan Sulfate Regulates the Early Stages of Microfibril Assembly” (Structure(London, England:1993), 2013)
